The record followed here is article PMC2915760.

By Km is commonly meant the concentration of substrate that gives half-maximal velocity.

Substrate in this data set: O=[N+]([O-])c1ccc(OP(=O)(O)O)cc1
As to the kind of experiment: purified protein.

B1: Lyp (lymphoid-specific protein tyrosine phosphatase, PTPN22), wild-type (Homo sapiens) (protein)
chain: MDQREILQKFLDEAQSKKITKEEFANEFLKLKRQSTKYKADKTYPTTVAEKPKNIKKNRYKDILPYDYSRVELSLITSDEDSSYINANFIKGVYGPKAYIATQGPLSTTLLDFWRMIWEYSVLIIVMACMEYEMGKKKCERYWAEPGEMQLEFGPFSVSCEAEKRKSDYIIRTLKVKFNSETRTIYQFHYKNWPDHDVPSSIDPILELIWDVRCYQEDDSVPICIHCSAGCGRTGVICAIDYTWMLLKDGIIPENFSVFSLIREMRTQRPSLVQTQEQYELVYNAVLELFKRQM
For the protein B1, the Km is 4.86 ± 0.39 mM.
